Legend:
[1] = molecular target: DNAX Leukocyte Associated Immunoglobulin-like Receptor (DLAIR-1), the DX26 antigen / YE01 gene product (human); assay: flow cytometry (FACScan) on CEM T cell tumor cells; PE goat-anti-mouse-IgG second step
[2] = molecular target: DNAX Leukocyte Associated Immunoglobulin-like Receptor (DLAIR-1), the DX26 antigen / YE01 gene product (human); assay: flow cytometry (FACScan) on Peer T cell tumor cells; PE goat-anti-mouse-IgG second step
[3] = molecular target: DNAX Leukocyte Associated Immunoglobulin-like Receptor (DLAIR-1), the DX26 antigen / YE01 gene product (human); assay: flow cytometry (FACScan) on HUT78 T cell tumor cells; PE goat-anti-mouse-IgG second step
[4] = molecular target: DNAX Leukocyte Associated Immunoglobulin-like Receptor (DLAIR-1), the DX26 antigen / YE01 gene product (human); assay: flow cytometry (FACScan) on Molt4 T cell tumor cells; PE goat-anti-mouse-IgG second step
[5] = molecular target: DNAX Leukocyte Associated Immunoglobulin-like Receptor (DLAIR-1), the DX26 antigen / YE01 gene product (human); assay: flow cytometry (FACScan) on U937 myeloid tumor cells; PE goat-anti-mouse-IgG second step
[6] = molecular target: DNAX Leukocyte Associated Immunoglobulin-like Receptor (DLAIR-1), the DX26 antigen / YE01 gene product (human); assay: flow cytometry (FACScan) on Jurkat T cell tumor cells; PE goat-anti-mouse-IgG second step
[7] = molecular target: DNAX Leukocyte Associated Immunoglobulin-like Receptor (DLAIR-1), the DX26 antigen / YE01 gene product (human); assay: flow cytometry (FACScan) on HL60 promyeloid tumor cells; PE goat-anti-mouse-IgG second step

- mean fluorescence intensity [1]: 92.7
- mean fluorescence intensity [2]: 29.1
- mean fluorescence intensity [3]: 25.8
- mean fluorescence intensity [4]: 30.7
- mean fluorescence intensity [5]: 49.5
- mean fluorescence intensity [6]: 47.1
- mean fluorescence intensity [7]: 46.9
Substance: DX26 monoclonal antibody

Source: patent publication US20030105303A1
